Assay results from US20240141061A1, “NOVEL ANTIBODY AGAINST CD55 AND USE THEREOF” (SG MEDICAL INC, priority 2021, published 2024).
Substitutions are numbered along the chain they refer to. Names and notes keep the numbering of the source.

B1: EP-9B: anti-CD55 antibody screened from G4-1H random mutation library, VL SEQ ID NO 4, VH SEQ ID NO 21 (antibody, V domains shown)
VH: EVQLVESGGGLVQPGGSLRLSCAASGFTFSDRGMVWVRQSPGKGLEWVSGISSSGRYTYYAPAVKGRATISRDNSKNTLYLQMNNLRAEDTAVYYCAKNAVAGGWHAAYIDAWGQGTTVTVSS
VL: SYELTQPPSVSVSPGQTASITCSGGGGSYGWYQQKPGQSPVTVIYWNDKRPSGIPERFSGSKSGNTATLTISGTQAMDEADYYCGGWDSSTYAIFGGGTKLTVL
modifications: EP-9B_VH; G4-1H_VL
B2: 10H(L): EP-10H backbone with H100A site replaced with L, VH SEQ ID NO 27, EP-10H light chain (antibody, V domains shown)
VH: B1 VH with V5A, V35A, S40A, N85S, V101L
VL: B1 VL
B3: EP-1F: anti-CD55 antibody screened from G4-1H random mutation library, VL SEQ ID NO 4, VH SEQ ID NO 20 (antibody, V domains shown)
VH: B1 VH with V5A, V35A, S40A, N85S
VL: B1 VL
modifications: EP-1F_VH; G4-1H_VL
B4: EP-1E: anti-CD55 antibody screened from G4-1H random mutation library, VL SEQ ID NO 18, VH SEQ ID NO 19 (antibody, V domains shown)
VH: B1 VH with V35A, S40A, N85S
VL: B1 VL with Y32F, D48N
modifications: EP-1E_VH; EP-1E_VL
B5: 10H(M): EP-10H backbone with H100A site replaced with M, VH SEQ ID NO 29, EP-10H light chain (antibody, V domains shown)
VH: B1 VH with V5A, V35A, S40A, N85S, V101M
VL: B1 VL
B6: 10H(F): EP-10H backbone with H100A site replaced with F, VH SEQ ID NO 28, EP-10H light chain (antibody, V domains shown)
VH: B1 VH with V5A, V35A, S40A, N85S, V101F
VL: B1 VL
B7: G4-1H: humanized 4-1H anti-CD55 antibody, VL SEQ ID NO 4, VH SEQ ID NO 5 (antibody, V domains shown)
VH: B1 VH with V35A, S40A, N85S, V101G
VL: B1 VL
modifications: G4-1H_VH; G4-1H_VL
B8: 3R-2-1H: anti-CD55 antibody screened from G4-1H random mutation library, VL SEQ ID NO 4, VH SEQ ID NO 22 (antibody, V domains shown)
VH: B1 VH with A23V, S25R, V35A, S40A, A68T, N85S
VL: B1 VL
modifications: 3R-2-1H_VH; G4-1H_VL
B9: 3R-2-1H (antibody, V domains shown)
VH: B1 VH with A23V, S25R, V35A, S40A, A68T, N85S
VL: B1 VL
notes: Tested as full-length IgG
B10: EP-1E (antibody, V domains shown)
VH: B1 VH with V35A, S40A, N85S
VL: B1 VL with Y32F, D48N
notes: Tested as full-length IgG

The molecules below were run against T1, recombinant human CD55 (Homo sapiens, UniProt P08174) (assay: Indirect ELISA, affinity for CD55). Conditions: full-length antibody 0.0001-10 nM on CD55 coated at 1 μg/mL.
T1 construct: purchased R&D Systems 2009-CD/CF
T1 sequence (P08174 35-353): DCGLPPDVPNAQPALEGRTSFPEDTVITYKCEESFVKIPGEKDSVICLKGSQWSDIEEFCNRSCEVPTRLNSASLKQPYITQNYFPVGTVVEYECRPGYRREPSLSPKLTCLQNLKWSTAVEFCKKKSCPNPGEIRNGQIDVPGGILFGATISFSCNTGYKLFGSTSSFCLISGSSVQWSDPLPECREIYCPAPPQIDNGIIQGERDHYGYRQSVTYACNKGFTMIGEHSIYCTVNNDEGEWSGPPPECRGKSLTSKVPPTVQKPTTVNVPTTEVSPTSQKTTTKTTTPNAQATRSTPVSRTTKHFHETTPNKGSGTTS
Format: binding
Protocol: The binding ability of the G4-1H monoclonal antibody prepared in Example 2 for CD55 was investigated by indirect ELISA. For the indirect ELISA, recombinant human CD55 (R&D Systems, USA) diluted to 1 μg/mL in 50 μL of PBS was added to a 96-well immunoplate (Corning, USA) and then adsorbed by keeping at 4° C. overnight. After incubation for 1 hour at room temperature in a buffer containing 3% bovine serum albumin (Millipore, USA), followed by washing with a buffer containing 0.5% Tween 20 (Amresco, USA) three times, 50 μL of the serially diluted antibody (0.0001, 0.0003, 0.001, 0.003, 0.01, 0.03, 0.1, 0.3, 1, 3 and 10 nM) was treated per well. After incubation at room temperature for 2 hours for antibody-antigen binding, the antibody-antigen complex was washed three times with a buffer containing 0.5% Tween 20 (Amresco, USA). After treating with 50 μL of anti-human immunoglobulin Fc-HRP antibody (Jackson Immunoresearch, USA) diluted to 1:3,000 per well, followed by incubation at room temperature for 1 hour and washing three times with a buffer containing 0.5% Tween 20 (Amresco, USA), color development was conducted for 10 minutes by adding 50 μL of 3,3′,5,5′-tetramethylbenzidine (TMB) (ThermoFisher Scientific, USA).
The affinity of the antibodies screened in Example 6 for CD55 was investigated by indirect ELISA. The indirect ELISA was conducted in the same manner as in Example 3.
The affinity of the antibodies prepared in Example 8 for CD55 was investigated by indirect ELISA. The indirect ELISA was conducted in the same manner as in Example 3. […]

Row | Molecule | affinity for CD55 (indirect ELISA, absorbance at 450 nm)
1 | B1 | affinity higher than that of 4-1H but lower than those of other antibodies
2 | B2 | lower affinity than EP-10H
3 | B3 | comparable affinity
4 | B4 | comparable affinity
5 | B5 | lower affinity than EP-10H
6 | B6 | lower affinity than EP-10H
7 | B7 | lower affinity for CD55 than 4-1H
8 | B8 | comparable affinity

Each molecule was assayed against T2, recombinant human CD55 (R&D Systems 2009-CD/CF) (human, UniProt P08174 35-353) (assay: indirect ELISA, recombinant human CD55 coated). Conditions: not given.
T2 construct: Bought recombinant protein coated on ELISA plates; also called decay-accelerating factor; DAF
T2 sequence (looked up): T1 sequence (P08174 35-353)

Row | Molecule | binding result
9 | B9 | binds
10 | B10 | binds
